Source: the RNAGym collection of RNA variant scans (doi:10.7554/elife.80360)

B1: Hairpin Ribozyme (parent)
chain: GUCCUCUUUCACGUGCGCGUGAAAGAGAGAAGUGAACCAGAGAAACACACGUUGUGGUAUAUUACCUGGUA

Variants of: B1
Test: self-cleavage, relative activity (ratio to wild type); higher = more cleavage; co-transcriptional

**Q.** Which self-cleavage does the source give for GUCCUCUUUCACGUGCGCGUGAAAGAGAGAAGUGAACCAGAGAAACACACGUUGUGGUAUUUUAACUGGUA here?
**A.** The self-cleavage was 0.107.

**Q.** Which self-cleavage does the source give for GUCCUCUUUCACGUGCGCGUGAAAGAGAGAAGUGAACCAGAGAAACACACGUUGUGGUAUUUUACCUUGUA here?
**A.** Its self-cleavage is 0.153.

**Q.** Which self-cleavage does the source give for GUCCUCUUUCACGUGCGCGUGAAAGAGAGAAGUGAACCAGAGAAACACACGUUGUGGUAUUUUACCUGAUA here?
**A.** The self-cleavage was 0.145.

**Q.** With GUCCUCUUUCACGUGCGCGUGAAAGAGAGAAGUGAACCAGAGAAACACACGUUGUGGUAUUUUACCUGCUA as the variant, how does the self-cleavage read?
**A.** Its self-cleavage is 0.283.

**Q.** Which self-cleavage does the source give for GUCCUCUUUCACGUGCGCGUGAAAGAGAGAAGUGAACCAGAGAAACACACGUUGUGGUAUUUUACCUGUUA here?
**A.** The self-cleavage was 0.152.

**Q.** With GUCCUCUUUCACGUGCGCGUGAAAGAGAGAAGUGAACCAGAGAAACACACGUUGUGGUAUUAUACCUGGUA as the variant, how does the self-cleavage read?
**A.** The self-cleavage was 0.139.

**Q.** Which self-cleavage does the source give for GUCCUCUUUCACGUGCGCGUGAAAGAGAGAAGUGAACCAGAGAAACACACGUUGUGGUAUUUCACCUGGUA here?
**A.** Its self-cleavage is 0.0398.

**Q.** For GUCCUCUUUCACGUGCGCGUGAAAGAGAGAAGUGAACCAGAGAAACACACGUUGUGGUAUUUGACCUGGUA, which self-cleavage is on record?
**A.** Its self-cleavage is 0.187.

**Q.** Which self-cleavage does the source give for GUCCUCUUUCACGUGCGCGUGAAAGAGAGAAGUGAACCAGAGAAACACACGUUGUGGUAUAAUACCUGGUA here?
**A.** Its self-cleavage is 0.185.

**Q.** With GUCCUCUUUCACGUGCGCGUGAAAGAGAGAAGUGAACCAGAGAAACACACGUUGUGGUAUAAUCCCUGGUA as the variant, how does the self-cleavage read?
**A.** Its self-cleavage is 0.164.

**Q.** For GUCCUCUUUCACGUGCGCGUGAAAGAGAGAAGUGAACCAGAGAAACACACGUUGUGGUAUAAUACCUGGUG, which self-cleavage is on record?
**A.** Its self-cleavage is 0.211.

**Q.** Which self-cleavage does the source give for GUCCUCUUUCACGUGCGCGUGAAAGAGAGAAGUGAACCAGAGAAACACACGUUGUGGUAUAAUAGCUGGUA here?
**A.** Its self-cleavage is 0.101.

**Q.** For GUCCUCUUUCACGUGCGCGUGAAAGAGAGAAGUGAACCAGAGAAACACACGUUGUGGUAUAAUACGUGGUA, which self-cleavage is on record?
**A.** Its self-cleavage is 0.188.

**Q.** With GUCCUCUUUCACGUGCGCGUGAAAGAGAGAAGUGAACCAGAGAAACACACGUUGUGGUAUAAAACCUGGUA as the variant, how does the self-cleavage read?
**A.** The self-cleavage was 0.12.

**Q.** Which self-cleavage does the source give for GUCCUCUUUCACGUGCGCGUGAAAGAGAGAAGUGAACCAGAGAAACACACGUUGUGGUAUAACACCUGGUA here?
**A.** Its self-cleavage is 0.113.

**Q.** With GUCCUCUUUCACGUGCGCGUGAAAGAGAGAAGUGAACCAGAGAAACACACGUUGUGGUAUAAGACCUGGUA as the variant, how does the self-cleavage read?
**A.** The self-cleavage was 0.112.

**Q.** With GUCCUCUUUCACGUGCGCGUGAAAGAGAGAAGUGAACCAGAGAAACACACGUUGUGGUAUAAUACCAGGUA as the variant, how does the self-cleavage read?
**A.** The self-cleavage was 0.134.

**Q.** For GUCCUCUUUCACGUGCGCGUGAAAGAGAGAAGUGAACCAGAGAAACACACGUUGUGGUAUAAUACCCGGUA, which self-cleavage is on record?
**A.** The self-cleavage was 0.134.

**Q.** Which self-cleavage does the source give for GUCCUCUUUCACGUGCGCGUGAAAGAGAGAAGUGAACCAGAGAAACACACGUUGUGGUAUAAUACCUGGCA here?
**A.** Its self-cleavage is 0.219.

**Q.** For GUCCUCUUUCACGUGCGCGUGAAAGAGAGAAGUGAACCAGAGAAACACACGUUGUGGUAUACUACCUGGUA, which self-cleavage is on record?
**A.** The self-cleavage was 0.268.

**Q.** For GUCCUCUUUCACGUGCGCGUGAAAGAGAGAAGUGAACCAGAGAAACACACGUUGUGGUAUACUGCCUGGUA, which self-cleavage is on record?
**A.** Its self-cleavage is 0.18.

**Q.** Which self-cleavage does the source give for GUCCUCUUUCACGUGCGCGUGAAAGAGAGAAGUGAACCAGAGAAACACACGUUGUGGUAUACUAGCUGGUA here?
**A.** Its self-cleavage is 0.132.

**Q.** For GUCCUCUUUCACGUGCGCGUGAAAGAGAGAAGUGAACCAGAGAAACACACGUUGUGGUAUACUACCUUGUA, which self-cleavage is on record?
**A.** The self-cleavage was 0.178.

**Q.** With GUCCUCUUUCACGUGCGCGUGAAAGAGAGAAGUGAACCAGAGAAACACACGUUGUGGUAUACUACCUGUUA as the variant, how does the self-cleavage read?
**A.** The self-cleavage was 0.169.

**Q.** With GUCCUCUUUCACGUGCGCGUGAAAGAGAGAAGUGAACCAGAGAAACACACGUUGUGGUAUACUACCCGGUA as the variant, how does the self-cleavage read?
**A.** The self-cleavage was 0.121.

**Q.** Which self-cleavage does the source give for GUCCUCUUUCACGUGCGCGUGAAAGAGAGAAGUGAACCAGAGAAACACACGUUGUGGUAUACUACCGGGUA here?
**A.** Its self-cleavage is 0.265.

**Q.** For GUCCUCUUUCACGUGCGCGUGAAAGAGAGAAGUGAACCAGAGAAACACACGUUGUGGUAUAGUACCUGGUA, which self-cleavage is on record?
**A.** The self-cleavage was 0.179.

**Q.** Which self-cleavage does the source give for GUCCUCUUUCACGUGCGCGUGAAAGAGAGAAGUGAACCAGAGAAACACACGUUGUGGUAUAGUACAUGGUA here?
**A.** The self-cleavage was 0.207.

**Q.** Which self-cleavage does the source give for GUCCUCUUUCACGUGCGCGUGAAAGAGAGAAGUGAACCAGAGAAACACACGUUGUGGUAUAGUACCUAGUA here?
**A.** The self-cleavage was 0.263.

**Q.** With GUCCUCUUUCACGUGCGCGUGAAAGAGAGAAGUGAACCAGAGAAACACACGUUGUGGUAUAGUACCUGAUA as the variant, how does the self-cleavage read?
**A.** Its self-cleavage is 0.0955.

**Q.** Which self-cleavage does the source give for GUCCUCUUUCACGUGCGCGUGAAAGAGAGAAGUGAACCAGAGAAACACACGUUGUGGUAUAGUACCUGCUA here?
**A.** The self-cleavage was 0.217.

**Q.** For GUCCUCUUUCACGUGCGCGUGAAAGAGAGAAGUGAACCAGAGAAACACACGUUGUGGUAUAGUACCUGUUA, which self-cleavage is on record?
**A.** The self-cleavage was 0.165.

**Q.** Which self-cleavage does the source give for GUCCUCUUUCACGUGCGCGUGAAAGAGAGAAGUGAACCAGAGAAACACACGUUGUGGUAUAGUACCUGGCA here?
**A.** The self-cleavage was 0.18.

**Q.** Which self-cleavage does the source give for GUCCUCUUUCACGUGCGCGUGAAAGAGAGAAGUGAACCAGAGAAACACACGUUGUGGUAUAGUACCUGGGA here?
**A.** Its self-cleavage is 0.352.

**Q.** For GUCCUCUUUCACGUGCGCGUGAAAGAGAGAAGUGAACCAGAGAAACACACGUUGUGGUAUAUACCCUGGUA, which self-cleavage is on record?
**A.** Its self-cleavage is 0.0838.

**Q.** Which self-cleavage does the source give for GUCCUCUUUCACGUGCGCGUGAAAGAGAGAAGUGAACCAGAGAAACACACGUUGUGGUAUAUAACCUGGUG here?
**A.** Its self-cleavage is 0.221.

**Q.** With GUCCUCUUUCACGUGCGCGUGAAAGAGAGAAGUGAACCAGAGAAACACACGUUGUGGUAUAUAACCUGGUU as the variant, how does the self-cleavage read?
**A.** Its self-cleavage is 0.182.

**Q.** Which self-cleavage does the source give for GUCCUCUUUCACGUGCGCGUGAAAGAGAGAAGUGAACCAGAGAAACACACGUUGUGGUAUAUAAUCUGGUA here?
**A.** Its self-cleavage is 0.0803.
